For 3 molecules, IC50 results are on record in patent publication US20130136691A1 (BRACCO IMAGING S P A, published 2013).

In experiment [1] the target is T1, gastrin releasing peptide receptor (GRP-R) (human, UniProt P30550 1-384).
T1 construct: whole, on cells; also called GRP receptor; BB2
Kind of experiment: 125I-BBN competition, PC3 cells.

For experiment [2], the target named is T2, neuromedin-B preferring receptor (NMB-R) on C6 rodent glioblastoma cells (rodent, UniProt P24053 1-390, limits assumed).
T2 construct: whole, on cells; also called C6/NMB-R
T2 sequence (looked up): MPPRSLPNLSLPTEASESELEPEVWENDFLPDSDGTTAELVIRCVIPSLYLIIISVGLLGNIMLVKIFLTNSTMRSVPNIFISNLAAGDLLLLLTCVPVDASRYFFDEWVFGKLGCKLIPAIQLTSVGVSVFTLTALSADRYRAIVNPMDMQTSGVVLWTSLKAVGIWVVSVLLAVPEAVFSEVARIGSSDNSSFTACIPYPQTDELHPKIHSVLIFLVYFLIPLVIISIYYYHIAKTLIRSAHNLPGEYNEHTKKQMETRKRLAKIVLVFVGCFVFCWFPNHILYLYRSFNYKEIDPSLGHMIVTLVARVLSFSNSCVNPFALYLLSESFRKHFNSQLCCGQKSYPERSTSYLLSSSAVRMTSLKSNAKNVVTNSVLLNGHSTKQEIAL
Briefly: 125I-NMB competition, C6 cells.

T1 sequence (P30550 whole entry): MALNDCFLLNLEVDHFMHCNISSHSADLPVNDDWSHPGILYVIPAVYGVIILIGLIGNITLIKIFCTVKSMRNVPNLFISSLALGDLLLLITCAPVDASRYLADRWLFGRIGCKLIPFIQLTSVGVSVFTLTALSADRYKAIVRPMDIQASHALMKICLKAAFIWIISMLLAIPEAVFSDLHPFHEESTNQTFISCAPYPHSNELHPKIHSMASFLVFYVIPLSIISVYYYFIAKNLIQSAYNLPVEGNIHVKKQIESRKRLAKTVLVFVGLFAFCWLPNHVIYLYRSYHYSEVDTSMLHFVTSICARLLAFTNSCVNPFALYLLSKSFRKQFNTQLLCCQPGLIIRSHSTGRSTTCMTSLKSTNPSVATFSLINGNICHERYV

Turning to QWAVGHLM (N-term: N,N-dimethylglycine-Ser-Cys(Acm)-Gly-Ser-Lys; C-term amide) [N,N-dimethylglycine-Ser-Cys(Acm)-Gly-SK-QWAVGHLM-NH2], the 50% inhibitory concentration (IC50) in experiment [1] was 2 nM.
Take QWAVGHLM (N-term: N,N-dimethylglycine-Ser-Cys(Acm)-Gly-Lys-Glu; C-term amide) [N,N-dimethylglycine-Ser-Cys(Acm)-Gly-KE-QWAVGHLM-NH2]: in experiment [2], the 50% inhibitory concentration (IC50) turned out to be 60 nM.
QWAVGHLM (N-term: N,N-dimethylglycine-Ser-Cys(Acm)-Gly-Ser-Arg; C-term amide) [N,N-dimethylglycine-Ser-Cys(Acm)-Gly-SR-QWAVGHLM-NH2]: the IC50 in experiment [2] stood at 2 nM. Compared with the last molecule, the IC50 is about 30-fold lower.

The IC50 is the concentration at which inhibition is half-maximal. A higher IC50 goes with weaker potency.
